Laboratory results reported in PMC10630337, “Transcriptional reprogramming by mutated IRF4 in lymphoma”.
Where a chain is given by its changes, count along the chain named.

T1: IRF4-C99R DBD;JUNB DBD;BATF DBD (human;human;human, UniProt Q15306;P17275;Q16520 20-139;269-329;28-87, C99R||)
T1 sequence 1: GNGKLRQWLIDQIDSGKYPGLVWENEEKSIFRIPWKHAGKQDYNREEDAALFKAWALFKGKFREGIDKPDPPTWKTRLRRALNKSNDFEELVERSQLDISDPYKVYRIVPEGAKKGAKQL
T1 sequence 2: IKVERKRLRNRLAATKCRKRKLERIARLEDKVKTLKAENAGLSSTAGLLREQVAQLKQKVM
T1 sequence 3: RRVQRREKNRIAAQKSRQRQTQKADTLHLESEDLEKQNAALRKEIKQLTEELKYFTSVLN

T2: IRF4-WT DBD;JUNB DBD;BATF DBD (human;human;human, UniProt Q15306;P17275;Q16520 20-139;269-329;28-87, ||)
T2 sequence 1: T1 sequence 1 with R80C
T2 sequence 2: T1 sequence 2
T2 sequence 3: T1 sequence 3

B1: AICE2FLIP short IRFmut (dsDNA)
DNA 1: AGTGCATGTATGAGTCAGAGATC
DNA 2: AGGATCTCTGACTCATACATGCA
B2: AICE2 (Bcl11b) short, IRF motif tAcA (dsDNA)
DNA 1: AGTGCATACATGAGTCAGAGATC
DNA 2: AGGATCTCTGACTCATGTATGCA
B3: AICE2 (Bcl11b) (dsDNA)
DNA 1: AGCTTAGTGCAGAAATGAGTCAGAGATCAAAGAAG
DNA 2: AGCTCTTCTTTGATCTCTGACTCATTTCTGCACTA
B4: AICE2FLIP (AICE2 5'TTTC) (dsDNA)
DNA 1: B3 DNA 1 with G12T, A13T, A14T, A15C
DNA 2: B3 DNA 2 with T25G, T26A, T27A, C28A

Columns and labels:
[1] = biological target: T1, IRF4-C99R DBD;JUNB DBD;BATF DBD; assay: EMSA; IRF4 composite complex abolished; EMSA: 10 mM HEPES pH 7.9, 70 mM KCl, 5 mM DTT, 1 mM EDTA, 2.5 mM MgCl2, 4% Ficoll, 0.5 mg/ml BSA, 0.1 ug/ml poly(dI-dC); 3-5 ug nuclear extract; temperature not stated; conditions: protein: recombinant;recombinant;recombinant; copies: 1;1;1; label: 32P-dCTP Klenow end label; 5' overhang 2 nt before Klenow labeling
[2] = biological target: T1, IRF4-C99R DBD;JUNB DBD;BATF DBD; assay: EMSA; short or long probe not certain; EMSA: 10 mM HEPES pH 7.9, 70 mM KCl, 5 mM DTT, 1 mM EDTA, 2.5 mM MgCl2, 4% Ficoll, 0.5 mg/ml BSA, 0.1 ug/ml poly(dI-dC); 3-5 ug nuclear extract; temperature not stated; conditions: protein: recombinant;recombinant;recombinant; copies: 1;1;1; label: 32P-dCTP Klenow end label; 5' overhang 4 nt before Klenow labeling
[3] = biological target: T2, IRF4-WT DBD;JUNB DBD;BATF DBD; assay: as above; conditions: protein: recombinant;recombinant;recombinant; copies: 1;1;1; label: 32P-dCTP Klenow end label; 5' overhang 4 nt before Klenow labeling

Row | Binder | binding result [1] | binding result [2] | binding result [3]
1 | B1 | no binding | – | –
2 | B2 | no binding | – | –
3 | B3 | – | binds | –
4 | B4 | – | binds | no binding
